# Laboratory results reported in the supplement of paper PMC9170038.
# Test system: MS2 coat protein
# Test: apparent KD of MS2 coat protein; designed switch direction (-1 OFF switch, 1 ON switch): 1; higher = weaker reporter binding
# Procedure, shortened: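 Stalled E. coli RNA polymerase transcribed designed RNA switches on Illumina chips, which were then titrated with SNAP-549-labelled MS2 coat protein, doubling from 0.7 or 1.5 nM to 3 µM. Steps lasted from 0.8–1.5 h at the lowest concentration to 10–20 min at the highest. The apparent KD is each design's median over clusters of curve-fitted normalised fluorescence.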
# [1] = input ligand: microRNA oligo, concentration not stated
# [2] = Eterna round: R95, input ligand: FMN 200 uM
# [3] = Eterna round: R95, input ligand: microRNA oligo, concentration not stated
# [4] = Eterna round: R95, input ligand: none
Sequence,apparent KD of MS2 coat protein (input ligand: FMN 200 uM) [µM],apparent KD of MS2 coat protein [1] [µM],apparent KD of MS2 coat protein (input ligand: none) [µM],apparent KD of MS2 coat protein [2] [µM],apparent KD of MS2 coat protein [3] [µM],apparent KD of MS2 coat protein [4] [µM]
"UGCCUGAGUCGAGGAUAUUAUGGAUCCUCUAAUACAUGAGGAUCACCCAUGUAAUUAAUUAUACAUGAGAAGGCGACUCAGGCU [SSNG2/12-A1] (Eterna round: R96, puzzle: Same State NG 2)",0.304,0.0223,0.0465,–,–,–
GUGGCCUAGGCACAGGAUAUGUUUCUCGUAACAUGAGGAUCACCCAUGUGCCUUUGAGAUUUUAUGCAGAAGGGUGCACGCCACG [JL Atiinbe mod 04] (puzzle: Same State 2),–,–,–,0.0206,0.273,0.491
CGAUGAUACUUAGGAAGAAGAGUUGAAGUACAUGAGGAUCACCCAUGUCAGAGCUUUUUGCUCGUCAUGAACAGGAA [JR_SHM208a_Sub006] (puzzle: Sensor for hsa-mir-208a),–,–,–,0.0479,0.0277,0.0529
"GAGAGAGGGUGAGGAUAUGGAGUAAUAAUGAUACCAGAAGGCACAGACAUGAGGAUCACCCAUGUGGGAAUAAUCCAGAGAGAG [Parity 7 - Jieux - Same State NG 1] (Eterna round: R96, puzzle: Same State NG 1)",0.506,0.177,0.264,–,–,–
CGUCCGGCCUGUGCUGGCCGGAAGCAUGUACAUGAGGAUCACCCAUGUUCUUGUGCAGGCUUUUUGCUCGUCUUGUG [salish99_mir208a_010] (puzzle: Sensor for hsa-mir-208a),–,–,–,0.0249,0.0147,0.0222
"ACAUGAGGAUCACCCAUGUAUAGAUUUGAAUGUUAAGUUACGUAGGAUAUCGUGUUUAGUAUGAUCGAGAAGGACGAUCUGAUA [JR_SSNG3_Sub066] (Eterna round: R96, puzzle: Same State NG 3)",–,0.0186,–,–,–,–
"GCUCGUAUCACGACCGACAUGAGGAUCACCCAUGUAUGUUGGUAGGAUAUCUAUAUUAAGGAUAUAGAGAAGGGCCGAACGAGC [SameState NG3 #14] (Eterna round: R96, puzzle: Same State NG 3)",0.0235,0.0248,0.0301,–,–,–
AGAAAACAUGAGGAUCACCCAUGUAUAGUGAAUACAGGAUAUCACCGACGGAAUAAUUGGUGAGAAGGGUGAUCGC [Ceaqu] (puzzle: Same State 1),–,–,–,0.0212,0.0118,0.0232
"GAGGGACAGACCAACAUGAGGAUCACCCAUGUCCUCGCUGGUCAGGAUAUCCCGCCAACAGGCGAGGAGAAGGGACGGUGAACC (Eterna round: R96, puzzle: Same State NG 3)",1.11,0.425,0.724,–,–,–
"GUUACAUGAGGAUCACCCAUGUAUGUGUGGGAGUAAGUGUCUUAGGAUAUCUGAUAUUUAAUUUAAGAGAAGGAAGAUUGUUGU [JMF's solution 29] (Eterna round: R96, puzzle: Same State NG 3)",0.119,0.0696,0.0855,–,–,–
"GUAGCAUACCGAGGAUAUUCAUAUUAAAUACAUGAGGAUCACCCAUGUUAGGCCAAAAGGCCUUGGGAGAAGGCGGAAUGCUAC [Xeonanis - 20 Mod2] (Eterna round: R96, puzzle: Same State NG 2)",0.0209,0.0336,0.0635,–,–,–
"GCUGGAAACCACAUGAGGAUCACCCAUGUUCCGGAAACGGCACAGGAUAUCUGUCCGAAAAGGUCAGAGAAGGGUGGAACCAGC [Fiskers NG3ss - 82] (Eterna round: R96, puzzle: Same State NG 3)",0.221,0.35,0.393,–,–,–
AGUCCAGCCAGAGCUGGACAAAAGCAUGUACAUGAGGAUCACCCAUGUUCAUGUACAAGCUUUUUGCUCGUCUUAAU [Mat - hsa-mir-208a - Mod of JL - 59] (puzzle: Sensor for hsa-mir-208a),–,–,–,0.482,0.0141,0.553
"UAAAUACAUGAGGAUCACCCAUGUCAAAAGACAUGAGGAUAUGUACAGACUUCGGUCUGUACAGAAGGCAUGAAUA [salish99_ss1_r3_096] (Eterna round: R96, puzzle: Same State 1)",–,0.417,–,–,–,–
"UCGGGCGUACUUGCUGACAUGAGGAUCACCCAUGUAAAUGGGAAGGAUAUGGUACCGUUUCGGUACCAGAAGGUCCUGGGUGCU [salish99_SSNG3_r04_309] (Eterna round: R96, puzzle: Same State NG 3)",2.27,0.674,3.84,–,–,–
"AUUACUAACAUAGGAUAUCAUGCGAAAAUUGCGUGAGAAGGGUGGACGCUGUCAUUCACGGAAGACAUGAGGAUCACCCAUGUC [SameState NG1 #73] (Eterna round: R96, puzzle: Same State NG 1)",0.17,0.0705,0.119,–,–,–
"GUGGUCAGACAUGAGGAUCACCCAUGUGGAAUAAAUAACGGUGAGGAUAUGCAAUAUAGGAUAUAGUAGAAGGCAUGAUUGGUG (Eterna round: R96, puzzle: Same State NG 3)",0.164,0.104,0.132,–,–,–
"GGUCGGACCUACAUGAGGAUCACCCAUGUUCCGGAAACGGCAUAGGAUAUCUGUCCGAAAAGGUCAGAGAAGGGUGAACCGACC [Fiskers NG3ss - 74] (Eterna round: R96, puzzle: Same State NG 3)",0.145,0.16,0.162,–,–,–
UUUGGGUGGCUGGAGGAUAUUCUAGUGGUUACAUGAGGAUCACCCAUGUGUCGCGCGGUUCGCGAGGAGAAGGCUGGCGGCCGUU (puzzle: Same State 2),–,–,–,–,0.0933,–
"GAGUAGUUGAAAGGAUAUUGAUUAUUGUAGGAUCAAGAAGGUUUUAACAUGAGGAUCACCCAUGUAGGACUAUAAAUGUGAAAA [Parity 94 - Jieux - Same State NG 1] (Eterna round: R96, puzzle: Same State NG 1)",0.0122,0.0101,0.0156,–,–,–
"CUCACAUGGGUAGGAUAUCUAGGAUAUGGGAAAGACUAAGUCUGUAGGUCACCUAACCCAGAUGGAGAGAAGGACCCAACACUC [pwkr ssNG2 2FMN + F9.37] (Eterna round: R96, puzzle: Same State NG 2)",0.0324,0.00781,0.00982,–,–,–
"UUAAUUUACUGAGGAUAUCGUGUCGUCUGAUUUGACAUGAGGAUCACCCAUGUGUGAAGUGGUAUCGAGAAGGCAGUUUUCUUA [JR_SSNG2_Sub027] (Eterna round: R96, puzzle: Same State NG 2)",0.0242,0.0426,0.0755,–,–,–
"UGGCUCAGAGCAGGAUAUAUGUCUCGAGCUUCGGCUCGAGACAUGAGGAUCACCCAUGUAAUAACAUAGAAGGGCUCUGAGCCU [SSNG2/1-B3] (Eterna round: R96, puzzle: Same State NG 2)",0.0158,0.042,0.0533,–,–,–
"UUAUCUCUUACAUGAGGAUCACCCAUGUUUUUAUGUCUUAGACAGGAUAUAGUAGUCUCGUAUUACUAGAAGGGUCUUUUUAUU [JR_SSNG3_Sub020] (Eterna round: R96, puzzle: Same State NG 3)",0.0187,0.0224,0.0264,–,–,–
"UUGAAGAAUUAAGGAUAUUGAAUACAUAUGUUUAACAUGAGGAUCACCCAUGUGGGUUGCGGUAUCGAGAAGGUAAAUUACUAA [Mat - Same State NG 2 - JL mod - D1] (Eterna round: R96, puzzle: Same State NG 2)",0.14,0.0805,0.112,–,–,–
GGUGAGAGAGUCAAGGAUAUUAAAGGAGAGACAUGAGGAUCACCCAUGUAAGAGAGAGAGGAGAGUGAGAAGGUGAAGAGAGUGG [Altered State 2-25 - Jieux - Same State 2] (puzzle: Same State 2),–,–,–,0.0304,0.025,0.0606
"GUUACAUGAGGAUCACCCAUGUAUGUGUGGGAGUAAGUGUCUUAGGAUAUCUGUGAUUUAAUUUAAGAGAAGGAAGAUUGUUGU [JMF's solution 32] (Eterna round: R96, puzzle: Same State NG 3)",0.126,0.0716,0.0961,–,–,–
AGCGAGAUAGGCAAGGAUAUGCUGGGUUGCACAUGAGGAUCACCCAUGUCAUUGGUUAUGGCCGAGCAGAAGGUGCAUUCUCUUU [ak bound state near shape] (puzzle: Same State 2),–,–,–,0.0195,0.0756,0.0665
"ACAUGAGACAUAGGAUAUCUUGUACCUACAUGUGACAUGAGGAUCACCCAUGUGGUAAGUAUGAGAGAGAAGGAUGAGAUAUGU [Equivalence 48 - Jieux - Same State NG 2] (Eterna round: R96, puzzle: Same State NG 2)",0.0175,0.0179,0.0206,–,–,–
"GAGUGGCAGUUAGGAUAUAUAGUGAUAAUGAUAAUAGAAGGAACAGACAUGAGGAUCACCCAUGUAGGACUAAUCCAGAGAGAG [Parity 34 - Jieux - Same State NG 1] (Eterna round: R96, puzzle: Same State NG 1)",0.0323,0.0217,0.0283,–,–,–
